According to article PMC9917171, “Yet Another Similarity between Mitochondrial and Bacterial Ribosomal Small Subunit Biogenesis Obtained by Structural Characterization of RbfA from S. aureus” (International Journal of Molecular Sciences, 2023):

Target: ribosomal binding factor A (RbfA) from Staphylococcus aureus, histidine tag at the N-terminus (S. aureus, UniProt A5ISF4 1-116)
Assay: cryo-EM structure; 30S-RbfA complex reconstituted by mixing mature S. aureus 30S subunits and recombinant RbfA (1:30); overall resolution 2.9 Å
Settings: both partners purified

B1: ribosomal protein S7 of the S. aureus 30S subunit (natural protein)
chain: MPRKGSVPKRDVLPDPIHNSKLVTKLINKIMLDGKRGTAQRILYSAFDLVEQRSGRDALEVFEEAINNIMPVLEVKARRVGGSNYQVPVEVRPERRTTLGLRWLVNYARLRGEKTMEDRLANEILDAANNTGGAVKKREDTHKMAEANKAFAHYRW
notes: 30S ribosomal protein S7, S. aureus RN6390; model built from the published S. aureus 30S (PDB 5ND8); Stood in the assay as part of the whole 30S subunit (16S rRNA and the other small subunit proteins; S21 and S1 not seen in the density); also called S7 head protein; source: endogenous, within 30S subunits obtained by dissociation of 70S ribosomes purified from S. aureus RN6390
**Q.** Does B1 bind?
**A.** binds
